Reference: the supplement of paper PMC9170038

System: MS2 coat protein
Assay: apparent KD of MS2 coat protein; higher = weaker reporter binding
Conditions: Eterna round: R107
Procedure, shortened: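 Normalised binding curves from single clusters were fitted, and the median fit for each design is given as apparent KD. The clusters held designed RNA switches transcribed on-chip from Illumina sequencing clusters. These were titrated with SNAP-549-labelled MS2 coat protein (twofold steps from 0.7 or 1.5 nM to 3 µM, 0.8–1.5 h to 10–20 min per step) in 100 mM Tris-HCl pH 7.5, 80 mM KCl, 4 mM MgCl2, without or with constant ligand.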

[1] = input ligand: theophylline 20 uM
[2] = input ligand: tryptophan 2.4 mM
[3] = input ligand: theophylline 2 mM

| Sequence | apparent KD of MS2 coat protein (input ligand: arginine 13.2 mM) | apparent KD of MS2 coat protein [1] | apparent KD of MS2 coat protein [2] | apparent KD of MS2 coat protein (input ligand: none) | apparent KD of MS2 coat protein [3] |
| --- | --- | --- | --- | --- | --- |
| CGUAGGAUCGUGGAUACCAGUACCGCCCACGACAUGAGGAUCACCCAUGUAGGUAAUCUUUACCCUUGGCAGCCAUUUUUUUCUG [theeternabot_sameState_MS2_Theo_B_14] | 41 nM | 72.6 nM | 45.2 nM | – | – |
| GGAGGUACCUGAAGGAGCGACAUGAGGAUCACCCAUGUCUCCCGUUAUGGGAGUUCUUUAGGUCAGGUAGGUCGCAGGUACCUCC [#1 Exclusion - Arginine B Attempt #3 (Inspired by Omei)] | 13.7 nM | – | – | 88.2 nM | – |
| CAUACUUUAGUAUGACGUGUGGGCAGUGAUACCAGAUACGAAAGUAUCCCUUGGCAGCACAACAUGAGGAUCACCCAUGUAAUUA [Theophylline A 1] | 21.9 nM | 26.6 nM | 23.1 nM | – | – |
| GCCGGUACGUCGGCAAAGCCGAUGUGCCAGCGAGGACCGGUACGGCCGCCACUCGUACAUGAGGAUCACCCAUGUCCGGUCCGGC [Omei Trp SS A C v1] | 26.7 nM | 62.5 nM | – | – | 71.8 nM |
| UGACAUUGCUCAGAUACCAGACAUGAGGAUCACCCAUGUACCAAGGUACCCGAAAGGAAUGUCCCUUGGCAGCUGAGCAAUGUCU [TheoBX 3 #MS2Left #Theo2 #StaticStem] | 11.7 nM | 11.9 nM | 11 nM | – | – |
| AGACAUGAGGAUCACCCAUGUAGUACGGAUACCAGAUCCAGAUGUAUCCCUUGGCAGCUGUGGUACAGCGUUACAUCGCUCCUAG [Exclusion - Theophylline A (Freestyle 20)] | 15.9 nM | 24.4 nM | 15.8 nM | – | – |
| UUAUUUAUAAUGGAUACCAGUUUAAUGGCCGCAAAUCCUGACAUGAGGAUCACCCAUGUAAGCCCUUGGCAGCUGUUAUGGGUUU [XTheo B #24] | 34.2 nM | 47.3 nM | 35.2 nM | – | – |
| UCAUGCAGGUCGGCCGCCACUACACACAUGAGGAUCACCCAUGUAGUUACUGGGUGAAGUGGCAGUAGGACCGGGACCUGCAUAU [Brourdmod08] | 155 nM | 664 nM | 559 nM | 423 nM | 696 nM |
| GCACCAGGUACGGAUACCAGCUAUAGGCCCAAUGGGCGACAUGAGGAUCACCCAUGUGAUGGCCCUUGGCAGCUGUACCUGGUGC [SSThB NP+V+V2 #9] | 148 nM | 193 nM | 218 nM | – | – |
| ACAUGAACAUGAGGAUCACCCAUGUAUGAUACCAGAAAAGAAGAGUUCCCUUGGCAGCGUACAACACAUGAGGAUCACCCAUGUG [kvcmullin] | 20.3 nM | 26.7 nM | 26.1 nM | – | – |
| UGGCGAGAAGGAAGGAGCGUCAGCUGAGUUACAUGAGGAUCACCCAUGUUGCACAUAGUGUGACAGGUAGGUCGCCUUCUGCCCU [SS-ArgB19] | 38 nM | 63.7 nM | 37.6 nM | 44.1 nM | 37.5 nM |
| ACGACGCAUACAGAUACCAGUAGAACAUGAGGAUCACCCAUGUCUGAGGCGCUCCGCCACUGCCCUUGGCAGCUGUAUGCGUCAG [SSTheo B #11] | 9.42 nM | 12.6 nM | 9.81 nM | – | – |
| UACCGAUACGGAAGGAGCGUAGAAGUAGUACAUGAGGAUCACCCAUGUAUGGGUAAUUUCGUACAGGUAGGUCGCCGUAUCGGUA [SSAB NP+V+V2 #23] | 23.3 nM | 38.3 nM | 35.5 nM | 31.8 nM | 40 nM |
| GGAUAGGACGGAAGGAGCGACGUGAGGCUAAUGUCCAGUCUUCUACAUGAGGAUCACCCAUGUCAGGUAGGUCGCCGUCCUAUCG [#21 Exclusion - Arginine B] | 30.3 nM | 51.7 nM | 41.8 nM | 28.1 nM | 40.7 nM |
| GGCUAGGUCUCGGCCGCCACUGCUACAUGAGGAUCACCCAUGUACCUGGGCGGUCGCUCCCUCGGCAGGACCGGGAGACAUUCGU [Onarbeisan] | 9.2 nM | 13.8 nM | – | – | 12.5 nM |
| GGCACCAGGCGAAGGAGCGUGAAGACAUGAGGAUCACCCAUGUAGAGGCCCGGACAGGGUUCGCAGGUAGGUCGCGCCUGGUGCC [#1 Same State - Arginine B Attempt #9 (HarryS)] | 22.9 nM | 40.6 nM | 13.5 nM | 16.2 nM | 26.8 nM |
| AACAUGAGGAUCACCCAUGUGUCCCUUGAUACCAGUCCCAUGUGAGACCCUUGGCAGCAAACAUGAGGAUCACCCAUGUCCCAUG [Same State Theophylline A 3] | 60.9 nM | 119 nM | 90.2 nM | – | – |
| UCGCUCUGGGUGGGAUCCGGAGAUGUGGAAGGAGCGCUGGAAACAGCAGGUAGGUCGCCAACGGACAUGAGGAUCACCCAUGUAC [Same State - Arginine A (Freestyle 18)] | 64.9 nM | 37.4 nM | 59 nM | 26.5 nM | 37.7 nM |
| AGCCAUGGAAACAUGGCGGCGGCUUGAGCGCGAGGACCGGUACGGCCGCCACUCGGGCAACAUGAGGAUCACCCAUGUUCCUCAU [ETA NP+V+V2 #19] | 64 nM | 104 nM | 190 nM | 113 nM | 75.7 nM |
| AGUUAAAUAUGUUAAUAACUAUUUACUGAAGGAGCGUGUUUUUACACAGGUAGGUCGCAGUGACAUGAGGAUCACCCAUGUAGUA [JR_SSArginiA_Sub012] | 31.3 nM | 49.7 nM | 33.4 nM | 37.5 nM | 43.5 nM |
